Test results: patent US20240158475A1

Key:
[1] = target: DN-III-NS antigen (produced by Fapon Biotech InC.) (dengue virus); assay: capture ELISA, antibody sample 729-fold dilution
[2] = target: DN-III-NS antigen (produced by Fapon Biotech InC.) (dengue virus); assay: capture ELISA, antibody sample 81-fold dilution
[3] = target: DN-III-NS antigen (produced by Fapon Biotech InC.) (dengue virus); assay: capture ELISA, antibody sample 243-fold dilution
[4] = target: DN-III-NS antigen (produced by Fapon Biotech InC.) (dengue virus); assay: capture ELISA, antibody sample 27-fold dilution
[5] = target: DN-III-NS antigen (produced by Fapon Biotech InC.) (dengue virus); assay: capture ELISA, antibody sample 3-fold dilution
[6] = target: DN-III-NS antigen (produced by Fapon Biotech InC.) (dengue virus); assay: capture ELISA, antibody sample 9-fold dilution
[7] = target: DN-III-NS antigen (produced by Fapon Biotech InC.) (dengue virus); assay: capture ELISA (anti-mouse IgG / antibody / antigen / HRP-mAb), antibody sample Original
[8] = target: DN-III quality control recombinant protein (produced by Fapon Biotech InC.) (dengue virus); assay: BLI, AMC sensor, antibody captured

Binder	OD450 (ref. 630 nm) [1]	OD450 (ref. 630 nm) [2]	OD450 (ref. 630 nm) [3]	OD450 (ref. 630 nm) [4]	OD450 (ref. 630 nm) [5]	OD450 (ref. 630 nm) [6]	OD450 (ref. 630 nm) [7]	Kd [8]	koff [8]	kon [8]
Mutation 2 (antibody, V domains shown) VH: EVQLQQSGTELVRPGALVKLSCKASGFNIKDYYVHWVKQRPRQGLEWIGWIDPNNGKTLYDPKYQDKASITSDTSTNTAYLQLRSLTSEDTAVYYCVTAYVRFVYWGQGTLVTVSA VL: QIVLTQSPAIMSAFPGERVTMTCSASSSVRYMYWHQQKPGSSPRLLIYDTSNVASGVPVRFSGSGSGTSYSLTISRDEAMDAATYYCQQYSSTPRTFGGGTKLEIKR	0.158 OD	0.689 OD	0.204 OD	1.56 OD	2.25 OD	2.13 OD	2.27 OD	–	–	–
Mutation 1-20 (antibody, V domains shown) VH: EVQLQQSGTELVRPGALVKLSCKASGFNIKDYYVHWVKQRPRQGLEWIGWIDPENGKTLYDPKFQDKASITSDTSTNTAYLQLRSLTSEDTAVYYCVSAYYRFVYWGQGTLVTVSA VL: QIVLTQSPAIMSAFPGERVTMTCSASSSVRYMYWHQQKPGSSPRLLIYDTSNVASGVPVRFSGSGSGTSYSLTISRDEAMDAATYYCQQWSSTPRTFGGGTKLEIKR	–	–	–	–	–	–	–	0.41 nM	1.66e-05 s⁻¹	40900 M⁻¹ s⁻¹
Mutation 1-18 (antibody, V domains shown) VH: EVQLQQSGTELVRPGALVKLSCKASGFNIKDYYVHWVKQRPRQGLEWIGWIDPENGKTLYDPKFQDKASITSDTSTNTAYLQLRSLTSEDTAVYYCVSAYVRFVYWGQGTLVTVSA VL: QIVLTQSPAIMSAFPGERVTMTCSASSSVRYMYWHQQKPGSSPRLLIYDTSNLASGVPVRFSGSGSGTSYSLTISRDEAMDAATYYCQQWSSTPRTFGGGTKLEIKR	–	–	–	–	–	–	–	0.9 nM	3.99e-05 s⁻¹	44500 M⁻¹ s⁻¹
Mutation 1-22 (antibody, V domains shown) VH: EVQLQQSGTELVRPGALVKLSCKASGFNIKDYYIHWVKQRPRQGLEWIGWIDPENGKTLYDPKFQDKASITSDTSTNTAYLQLRSLTSEDTAVYYCVSAYYRFVYWGQGTLVTVSA VL: QIVLTQSPAIMSAFPGERVTMTCSASTSVRYMYWHQQKPGSSPRLLIYDTSNLASGVPVRFSGSGSGTSYSLTISRDEAMDAATYYCQQWSSFPRTFGGGTKLEIKR	–	–	–	–	–	–	–	0.87 nM	3.2e-05 s⁻¹	48400 M⁻¹ s⁻¹
Mutation 1-17 (antibody, V domains shown) VH: EVQLQQSGTELVRPGALVKLSCKASGFNIKDYYLHWVKQRPRQGLEWIGWIDPENGKTIYDPKFQDKASITSDTSTNTAYLQLRSLTSEDTAVYYCVSAYFRFVYWGQGTLVTVSA VL: QIVLTQSPAIMSAFPGERVTMTCSASTSVRYMYWHQQKPGSSPRLLIYDTSNIASGVPVRFSGSGSGTSYSLTISRDEAMDAATYYCQQWSSFPRTFGGGTKLEIKR	–	–	–	–	–	–	–	0.78 nM	2.71e-05 s⁻¹	34600 M⁻¹ s⁻¹
Mutation 1 (antibody, V domains shown) VH: EVQLQQSGTELVRPGALVKLSCKASGFNIKDYYVHWVKQRPRQGLEWIGWIDPENGKTLYDPKFQDKASITSDTSTNTAYLQLRSLTSEDTAVYYCVTAYVRFVYWGQGTLVTVSA VL: QIVLTQSPAIMSAFPGERVTMTCSASSSVRYMYWHQQKPGSSPRLLIYDTSNVASGVPVRFSGSGSGTSYSLTISRDEAMDAATYYCQQWSSTPRTFGGGTKLEIKR	0.188 OD	0.918 OD	0.361 OD	1.9 OD	2.38 OD	2.29 OD	2.37 OD	1.07 nM	4.03e-05 s⁻¹	37700 M⁻¹ s⁻¹
anti-dengue virus NS1 3D5 monoclonal antibody (recombinant, expressed in CHO cells) (antibody, mouse IgG1, kappa, V domains shown) VH: EVQLQQSGTELVRPGALVKLSCKASGFNIKDYYVHWVKQRPRQGLEWIGWIDPNNGKTIYDPKFQDKASITSDTSTNTAYLQLRSLTSEDTAVYYCVTAYVRFVYWGQGTLVTVSA VL: QIVLTQSPAIMSAFPGERVTMTCSASTSVKYMYWHQQKPGSSPRLLIYETSNIASGVPVRFSGSGSGTSYSLTISRDEAMDAATYYCQQWSSYPRTFGGGTKLEIKR	0.169 OD	0.696 OD	0.281 OD	1.57 OD	2.31 OD	2.22 OD	2.34 OD	3.09 nM	0.000137 s⁻¹	44300 M⁻¹ s⁻¹
Mutation 4 (antibody, V domains shown) VH: EVQLQQSGTELVRPGALVKLSCKASGFNIKRYYVHWVKQRPRQGLEWIGWIDPRNGKTLYDPKVQDKASITSDTSTNTAYLQLRSLTSEDTAVYYCVTAYVRFVYWGQGTLVTVSA VL: QIVLTQSPAIMSAFPGERVTMTCSASSSVIYMYWHQQKPGSSPRLLIYWTSNVASGYPVRFSGSGSGTSYSLTISRDEAMDAATYYCQQVSSTPRTFGGGTKLEIKR	–	–	–	–	0.102 OD	0.014 OD	0.892 OD	–	–	–
Mutation 1-19 (antibody, V domains shown) VH: EVQLQQSGTELVRPGALVKLSCKASGFNIKDYYIHWVKQRPRQGLEWIGWIDPENGKTIYDPKFQDKASITSDTSTNTAYLQLRSLTSEDTAVYYCVSAYFRFVYWGQGTLVTVSA VL: QIVLTQSPAIMSAFPGERVTMTCSASTSVRYMYWHQQKPGSSPRLLIYDTSNVASGVPVRFSGSGSGTSYSLTISRDEAMDAATYYCQQWSSYPRTFGGGTKLEIKR	–	–	–	–	–	–	–	4.1 nM	4.34e-05 s⁻¹	31400 M⁻¹ s⁻¹
Mutation 1-21 (antibody, V domains shown) VH: EVQLQQSGTELVRPGALVKLSCKASGFNIKDYYVHWVKQRPRQGLEWIGWIDPENGKTIYDPKFQDKASITSDTSTNTAYLQLRSLTSEDTAVYYCVSAYFRFVYWGQGTLVTVSA VL: QIVLTQSPAIMSAFPGERVTMTCSASSSVRYMYWHQQKPGSSPRLLIYDTSNLASGVPVRFSGSGSGTSYSLTISRDEAMDAATYYCQQWSSFPRTFGGGTKLEIKR	–	–	–	–	–	–	–	0.66 nM	1.31e-05 s⁻¹	32300 M⁻¹ s⁻¹
Mutation 3 (antibody, V domains shown) VH: EVQLQQSGTELVRPGALVKLSCKASGFNIKLYYVHWVKQRPRQGLEWIGWIDPKNGKTLYDPKCQDKASITSDTSTNTAYLQLRSLTSEDTAVYYCVTAYVRFVYWGQGTLVTVSA VL: QIVLTQSPAIMSAFPGERVTMTCSASSSVVYMYWHQQKPGSSPRLLIYCTSNVASGLPVRFSGSGSGTSYSLTISRDEAMDAATYYCQQRSSTPRTFGGGTKLEIKR	–	–	–	0.031 OD	0.879 OD	0.21 OD	1.05 OD	–	–	–
